Assay results reported in paper PMC4072508, “Genome-Wide Prediction and Validation of Peptides That Bind Human Prosurvival Bcl-2 Proteins” (PLoS Computational Biology, 2014).
“And” between values parts separate entries of the source, which are not always exact repeats. Equal values may be shown once. Read-outs that look alike come from different tables or passages of the source. No end group written: not given here.

How the values were obtained:
Bcl-w = target: T1, Bcl-w (Homo sapiens, UniProt Q92843, Q133R); test: Fluorescence polarization direct binding
T1 construct: myc-Bcl-w SPOT array & FP; made in house
T1 sequence (Q92843 with tags, fused parts or gaps Q133R): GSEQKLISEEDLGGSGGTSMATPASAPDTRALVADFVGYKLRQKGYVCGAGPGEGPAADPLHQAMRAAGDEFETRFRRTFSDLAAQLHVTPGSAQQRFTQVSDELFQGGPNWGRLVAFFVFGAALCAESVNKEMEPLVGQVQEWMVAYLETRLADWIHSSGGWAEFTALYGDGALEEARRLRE
Protocol: (§1) Peptides were purified by reverse-phase HPLC using a C18 column and a linear water/acetonitrile gradient. We re-analyzed the purified peptide by mass spectrometry if there was not a single well-defined peak in HPLC chromatogram.
(§2) Fluorescence polarization (FP) assays were done at 25°C in assay buffer (20 mM NaPO4, 50 mM NaCl, 1 mM EDTA, 0.001% Triton X (v/v), pH 7.8). […] For all FP experiments, the total well volume was 120 µl. […] Anisotropy was measured using a Spectramax M5 plate reader from Molecular Devices.
(§3) Direct binding curves were fit using Pylab/Scipy/Optimize to a single-site binding model utilized previously.
(§4) ^1Best-fit KD values determined by combining all replicate titration curves and fitting to a direct binding model (see Methods). […] Values with an X followed by a number indicate the highest concentration (the number, in nM) for which signal was measured yet no binding was detected.

Bcl-2 = target: T2, Bcl-2 (Homo sapiens, UniProt P10415, DEL53-91); test: Fluorescence polarization direct binding
T2 construct: myc- Bcl-2 FP; made in house
Protocol: as §1, §2, §3, §4

Bfl-1 = target: T3, Bfl-1 (Homo sapiens, UniProt Q16548); test: Fluorescence polarization direct binding
T3 construct: myc- Bfl-1 SPOT array & FP; made in house
T3 sequence (Q16548 with tags, fused parts or gaps): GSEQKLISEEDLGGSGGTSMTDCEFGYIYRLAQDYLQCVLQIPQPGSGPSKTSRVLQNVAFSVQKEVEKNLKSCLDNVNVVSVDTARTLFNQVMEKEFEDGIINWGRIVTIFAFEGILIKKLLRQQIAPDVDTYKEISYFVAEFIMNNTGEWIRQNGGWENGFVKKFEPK
Protocol: as §1, §2, §3, §4

Mcl-1 [1] = target: T4, Mcl-1 (Homo sapiens, UniProt Q07820); test: Fluorescence polarization direct binding
T4 construct: myc-Mcl-1 SPOT array & FP; made in house
Protocol: as §1, §2, §3, §4

Mcl-1 [2] = target: T4, Mcl-1; conditions: cited from earlier work
Source text: Negative control mutatio ...

Bcl-xL = target: T5, Bcl-xL (Homo sapiens, UniProt Q07817); test: Fluorescence polarization direct binding; conditions: benchmark classification of peptides newly characterized in this study; read-out: Binder class, Bcl-xL
T5 construct: myc-Bcl-xL SPOT array & FP; made in house
Protocol: as §1, §2, §3, §4

[3] = FP direct binding, 10 nM FAM-labeled peptide, receptor titrated, 25°C, pH 7.8, fit of all replicate titrations, X+number in a cell = highest concentration (nM) measured with no binding detected, given here as >, SPNS1 fit to raw fluorescence, read-out: Best-fit KD, Bcl-w
[4] = benchmark classification of peptides newly characterized in this study, read-out: Binder class, Bcl-w
[5] = FP direct binding, 10 nM FAM-labeled peptide, receptor titrated, 25°C, pH 7.8, fit of all replicate titrations, X+number in a cell = highest concentration (nM) measured with no binding detected, given here as >, SPNS1 fit to raw fluorescence, read-out: Best-fit KD, Bcl-2
[6] = benchmark classification of peptides newly characterized in this study, read-out: Binder class, Bcl-2
[7] = FP direct binding, 10 nM FAM-labeled peptide, receptor titrated, 25°C, pH 7.8, fit of all replicate titrations, X+number in a cell = highest concentration (nM) measured with no binding detected, given here as >, SPNS1 fit to raw fluorescence, read-out: Best-fit KD, Bfl-1
[8] = benchmark classification of peptides newly characterized in this study, read-out: Binder class, Bfl-1
[9] = Binder class, Mcl-1, benchmark classification of peptides newly characterized in this study
[10] = read-out: Binder class, Mcl-1, natural BH3 peptides, interactions taken from literature
[11] = read-out: KD, Mcl-1, previously reported
[12] = read-out: Binder class, Mcl-1, S1 Bim variants, specific binding measured using yeast display, ref Dutta et al. (2010)
[13] = read-out: Binder class, Mcl-1, S2 Bim variants, ref Dutta et al. (2013)

T2 sequence (P10415 with tags, fused parts or gaps DEL53-91): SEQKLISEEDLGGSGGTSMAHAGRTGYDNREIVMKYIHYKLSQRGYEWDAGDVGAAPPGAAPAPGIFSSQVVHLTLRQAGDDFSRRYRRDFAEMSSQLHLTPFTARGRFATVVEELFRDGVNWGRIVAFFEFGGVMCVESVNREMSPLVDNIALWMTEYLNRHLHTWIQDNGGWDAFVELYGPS
T4 sequence (Q07820 with tags, fused parts or gaps): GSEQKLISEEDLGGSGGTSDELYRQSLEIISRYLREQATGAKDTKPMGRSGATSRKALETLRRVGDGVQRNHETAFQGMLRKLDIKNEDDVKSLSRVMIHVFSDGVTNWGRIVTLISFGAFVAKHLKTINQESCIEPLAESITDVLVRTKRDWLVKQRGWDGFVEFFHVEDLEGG
T5 sequence (Q07817 with tags, fused parts or gaps): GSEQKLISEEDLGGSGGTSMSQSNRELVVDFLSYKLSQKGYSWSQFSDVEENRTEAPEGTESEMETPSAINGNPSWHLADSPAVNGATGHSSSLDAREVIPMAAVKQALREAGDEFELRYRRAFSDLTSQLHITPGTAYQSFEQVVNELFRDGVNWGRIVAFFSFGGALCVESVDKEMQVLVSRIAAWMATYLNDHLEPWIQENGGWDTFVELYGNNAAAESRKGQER

Molecule	Kd (Mcl-1 [2]; [12]) [nM]	further results
CC[C@H](C)[C@H](N)C(=O)N[C@H](C(=O)N[C@@H](CCC(N)=O)C(=O)N[C@@H](CCSC)C(=O)N[C@H](C(=O)N[C@H](C(=O)N[C@@H](CCC(=O)O)C(=O)N[C@@H](CC(C)C)C(=O)N[C@@H](CC(C)C)C(=O)N[C@@H](CCCCN)C(=O)N[C@@H](CCCNC(=N)N)C(=O)N[C@H](C(=O)NCC(=O)N[C@@H](CC(=O)O)C(=O)N[C@@H](CCC(N)=O)C(=O)N[C@@H](Cc1c[nH]c2ccccc12)C(=O)N[C@@H](CCC(=O)O)C(=O)N[C@@H](CCC(=O)O)C(=O)N[C@@H](CCC(=O)O)C(=O)N[C@@H](CCC(N)=O)C(=O)N[C@@H](CO)C(=O)N[C@@H](CC(C)C)C(=O)N[C@@H](C)C(N)=O)C(C)C)C(C)C)[C@@H](C)CC)[C@@H](C)CC [C6orf222]	–	Kd (Bcl-w; [3]): < 30 nM and 13 nM; Kd (Bcl-w; [4]): < 1000 nM; Kd (Bcl-2; [5]): < 30 nM and 0.3 nM; Kd (Bcl-2; [6]): < 1000 nM; Kd (Bfl-1; [7]): < 30 nM and 1 nM; Kd (Bfl-1; [8]): < 1000 nM; Kd (Mcl-1 [1]; [9]): < 1000 nM; Kd (Mcl-1 [1]; FP direct binding, 10 nM FAM-labeled peptide, receptor titrated, 25°C, pH 7.8, fit of all replicate titrations, X+number in a cell = highest concentration (nM) measured with no binding detected, given here as >, SPNS1 fit to raw fluorescence): < 30 nM and 23 nM
CC[C@H](C)[C@H](NC(=O)[C@H](CCC(N)=O)NC(=O)[C@H](C)NC(=O)[C@H](CC(C)C)NC(=O)[C@H](Cc1ccc(O)cc1)NC(=O)[C@H](CCCNC(=N)N)NC(=O)[C@H](CO)NC(=O)[C@H](CCC(=O)O)NC(=O)[C@@H]1CCCN1C(=O)[C@@H](NC(=O)[C@@H](NC(=O)[C@H](CCC(=O)O)NC(=O)[C@@H](NC(=O)[C@@H](N)CCCCN)[C@@H](C)CC)[C@@H](C)O)[C@@H](C)O)C(=O)NCC(=O)N[C@@H](CC(=O)O)C(=O)N[C@@H](CO)C(=O)N[C@H](C(=O)N[C@@H](CO)C(=O)N[C@@H](CC(C)C)C(=O)N[C@H](C(=O)N[C@@H](CS)C(=O)N[C@@H](CO)C(=O)N[C@H](C(=O)N[C@H](C(=O)NCC(N)=O)[C@@H](C)O)[C@@H](C)O)[C@@H](C)O)C(C)C [VCAM1]	–	Kd (Bcl-w; [3]): > 4350 nM; Kd (Bcl-2; [5]): > 3050 nM; Kd (Bfl-1; [7]): > 3370 nM
AAQLTAARLKALGDELHQRTMWR [Hrk]	–	Kd (Mcl-1 [2]; [10]): > 10000 nM
AAQRYGRELRRMSDEFVDSFKKG (LWAAQRYGRELRRMSDEFVDSFKKGL) [Bad]	–	Kd (Mcl-1 [2]; [10]): < 1000 nM; Kd (Mcl-1 [2]; [11]): > 2500 nM
AEVQIARKLQCIADQFHRLHVQQ (HQAEVQIARKLQCIADQFHRLHVQQH) [Bmf]	–	Kd (Mcl-1 [2]; [10]): > 10000 nM
DARDYAVVLRKYADKIYSISMKH-NH2 [FOLH1]	–	Kd (Bcl-w; [3]): 907 nM; Kd (Bcl-w; [4]): > 10000 nM; Kd (Bcl-2; [5]): 70 nM; Kd (Bcl-2; [6]): > 10000 nM; Kd (Bcl-xL): < 1000 nM; Kd (Bfl-1; [7]): 1600 nM; Kd (Bfl-1; [8]): 1000 to 10000 nM
EGEKEVEALKKSADWVSDWSSRP (VVEGEKEVEALKKSADWVSDWSSRPE) [BNIP3L]	–	Kd (Mcl-1 [2]; [10]): > 10000 nM; Kd (Mcl-1 [2]; [11]): > 2500 nM
FIQSLAAMLKQYADKLEFMHILT-NH2 [CASP3]	–	Kd (Bcl-w; [3]): 64 nM; Kd (Bcl-w; [4]): < 1000 nM; Kd (Bcl-2; [5]): 264 nM; Kd (Bcl-2; [6]): < 1000 nM; Kd (Bfl-1; [7]): 43 nM; Kd (Bfl-1; [8]): < 1000 nM; Kd (Mcl-1 [1]; [9]): 1000 to 10000 nM
IIRNIARHLAQVGDSMDRSIPPG (EDIIRNIARHLAQVGDSMDRSIPPGL) [Bid]	–	Kd (Mcl-1 [2]; [10]): < 1000 nM
LEVECATQLRRFGDKLNFRQKLL (AELEVECATQLRRFGDKLNFRQKLLN) [Noxa]	–	Kd (Mcl-1 [2]; [10]): > 10000 nM
MTQEVGQLLQDMGDDVYQQYRSL (GVMTQEVGQLLQDMGDDVYQQYRSLT) [Mule]	–	Kd (Mcl-1 [2]; [10]): > 10000 nM
PEIWAAQEIRRIGDENNAYYARR	< 1000	–
PEIWAAQEIRRIGDESNAYYARR	< 1000	–
PEIWDAQELGRIGDEVNAYYARR	< 1000	–
PEIWFAQEARRYGDEFNAYYARR	> 10000	–
PEIWFAQEFSRIGDEVNAYYARR	< 1000	–
PEIWFAQEIDRIGDEVNAYYARR	< 1000	–
PEIWFAQEIERIGDEVNAYYARR	< 1000	–
PEIWFAQEIRRDGDEFNAYYARR	> 10000	–

Molecule	Kd (Mcl-1 [2]; [12]) [nM]	further results
PEIWFAQELKRFGDEANAYYARR	> 10000	–
PEIWFAQELKRNGDEYNAYYARR	> 10000	–
PEIWFAQELRRDGDEFNAYYARR	> 10000	–
PEIWFAQELRRDGDEYNAYYARR	> 10000	–
PEIWFAQELSRNGDEFNAYYARR	> 10000	–
PEIWFAQELSRYGEEYNAYYARR	> 10000	–
PEIWFAQEVGRIGDEINAYYARR	< 1000	–
PEIWFAQEVGRIGDEVNAYYARR	< 1000	–
PEIWFAQEVNRIGDEVNAYYARR	> 10000	–
PEIWIAQEFQRAGDEYNAYYARR	> 10000	–
PEIWIAQEFQRNGDEYNAYYARR	> 10000	–
PEIWIAQEIDRIGDEFNAYYARR	< 1000	–
PEIWIAQEIDRIGDETNAYYARR	< 1000	–
PEIWIAQEIDRIGDEVNAYYARR	< 1000	–
PEIWIAQEIDRIGNEINAYYARR	< 1000	–
PEIWIAQEIGRIGDETNAYYARR	< 1000	–
PEIWIAQEIGRIGNEVNAYYARR	< 1000	–
PEIWIAQEIGRTGDEVNAYYARR	< 1000	–
PEIWIAQEINRVGDEINAYYARR	< 1000	–

Molecule	Kd (Mcl-1 [2]; [12]) [nM]	further results
PEIWIAQEIRRIGEEYNAYYARR	< 1000	–
PEIWIAQELGRNGDEFNAYYARR	> 10000	–
PEIWIAQELQRDGDEYNAYYARR	> 10000	–
PEIWIAQELRRAGDVLNAYYARR	–	Kd (Mcl-1 [2]; [13]): < 1000 nM
PEIWIAQEVDRIGDEVNAYYARR	< 1000	–
PEIWIAQGLRRIGDTWNAYYARR	–	Kd (Mcl-1 [2]; [13]): < 1000 nM
PEIWLAQYLRRLGDQINAYYARR	–	Kd (Mcl-1 [2]; [13]): < 1000 nM
PEIWMAQVLRRFGDLLNAYYARR	–	Kd (Mcl-1 [2]; [13]): < 1000 nM
PEIWVAQEFGRAGDEFNAYYARR	> 10000	–
PEIWVAQEFGRNGDEFNAYYARR	> 10000	–
PEIWVAQEFKRFGDEYNAYYARR	> 10000	–
PEIWVAQEFKRYGDETNAYYARR	> 10000	–
PEIWVAQEFQRAGDEYNAYYARR	> 10000	–
PEIWVAQEFQRNGDEFNAYYARR	> 10000	–
PEIWVAQEFRRAGDEFNAYYARR	> 10000	–
PEIWVAQEIDRVGDEINAYYARR	< 1000	–
PEIWVAQEIERIGDEVNAYYARR	< 1000	–
RLAEVCAVLLRLGDELEMIRPSV (PGRLAEVCAVLLRLGDELEMIRPSVY) [Bok]	–	Kd (Mcl-1 [2]; [10]): < 1000 nM
WAREIGAQLRRMADDLNAQYERR (EQWAREIGAQLRRMADDLNAQYERRR) [Puma]	–	Kd (Mcl-1 [2]; [10]): < 1000 nM
